In the RNAGym collection of RNA variant scans (doi:10.1073/pnas.2313332121):

B1: TPR t1 (parent)
chain: GACCAAUCUGCCCUCAGAGCUCGAGAACAUCUUCGGAUGCAGAGGAGGCAGGCUUCGGUGGCGCGAUAGCGCCAACGUCCUCAACCUCCAAUGCAUCCCACCACAUGAUGAUGCCUGAAGAGCCUUGGUUUUUUG

Variants of: B1
Experiment: polymerase ribozyme fitness, log enrichment relative to wild type (log ratio); higher = more active; in vitro selection for triplet polymerase activity
Summary of the method: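 PCR was used to build mutant libraries for each subunit of a heterodimeric triplet polymerase ribozyme, which were then transcribed. A single in vitro selection round, in triplicate, used a frozen incubation at −7 °C and recovered extended constructs by gel excision, streptavidin beads and RT-PCR. Fitness is the logarithm of genotype enrichment relative to wild-type enrichment, averaged over replicates with inverse-variance weights. The logarithm is base 2, and after Illumina sequencing only genotypes with ≥10 input reads and ≥1 read per output were kept.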

Row | Variant | polymerase ribozyme fitness (log ratio)
1 | GACCAAUCUGCCCUCAGAGCUCGAGAACAUCUUCGGAUGCAGACGAGGCAGGCUUGGGUGGCGCGAUAUCGCCAACGUCCUCAACCUCCAAUGCAUCCCACCACAUGAUGAUGCCUGAAGAGCCUUGGUUUUUUG | -2.28
2 | GACCAAUCUGCCCUCAGAGCUCGAGAACAUCUUCGGAUGCAGAGGAGGCAGGCUUCGGUGGCGCGAUACCGCCAACGUCCUCAACCUCCAAUGCAUCACACCAAAUGAUGAUGCUUGAAGAGCCUUGGUUUUUUG | -7.27
3 | GACCACUCUGCCCUCAGAGCUCGAGAACAUCUUCGGAUGCAGAGGAGGCAGGCUUCGGUGGCGCGAUAGCGUCAACGUCCUCAACCUCCAGUGCAUCCCACCACAUGAUGAUGCCUGAAGUGCCUUGCUUUUUUG | -0.723
4 | GACCAAUCUGCCCUCAGAGCUCGAGAACUUCUUCGGAUGCAGAGGAGGCAGGCUUCGGUGGCGCGAUAGCGCCAACGUCCUCAACCUCCAAUGCAUCCCACCACAUGACGAUGCCUGAAGAGCAUUGGUUUUUUG | -3.97
5 | GACCAAUCUGCCCUCAGAGCUCGAGAACAUCUUCGGAUGCAGAGGAGGCAGGCUUCGGUUGCGCGAUAGCGCCAACGUCCUCAACCUCCAAUGCAUCCCACUACAUGGUGAUGCCUGAAGAGCCUUGGUUUUUUG | -3.29
6 | GACCAAUCUGCCCUCAGAGCUCGAGAACAUCUUCGGAUGCAGAGGUGGCAGGCUUCGGUGGCGCGAUAGCGCCAACGUCCUCAACCUCCAAUGGAUCCCACCACAUGAUGAUGCCUGAAGAGCCUUGGUUUUUUG | -2.36
7 | GACCAAUCUGCCCUCAGAGCUCGAGAUCAUCUUCGGAUGCAGAGGAUGCAGGCUUCGGUGGCGCGAUAGCGCCAACGUCCUCAACCUCCAAUGCAUCCCACCACAUGAUGAUGCCUGAAGAGCGUUGGUUUUUUG | -1.62
8 | GACCAAUCUGCCCUCAGAGCUCGAGAACAUCUUCGGAUGCAGAGGAGGCAGGCUUCGGUGGCGCGAUAGCGCCAACGUCCUCAACCUCCAAUGCAUCCCACCACCUGAUGAUGCCUAAAGAGCCUUGGUUUUUUG | -5.32
9 | GACCAAUCUGCCCUCAGAGCUCGAGAACAUCUUCGGAUGCAGAGGAGGCAGGCUUCGGUGGCGCGAUAGCGCCAACGUCCUCAACCUCCAAUGCAUCCCACCACAUGAUAAUGCCGGAAGAGCCUUGGUUUUUUG | -3.5
10 | GACCAAUCUGCCCUCAGAGCUCGAGAACAUCUUCGGAUGCAGAGGAGGCAGGCUUCGGUGGCGCGAUAGCGCCAACGUCCUCAACCUCCAAUGCAUCCCACCACAUGAUGAUUCCUGAAGAGCCUUGCUUUUUUG | -4.63
11 | GACCAAUCUGCCCUCAGAGCUCGAUAACAUCUUCGGAUGCAGAGGAGGCAGGCUUGGGUGGCGCGAUAGCGCCAACGUCCUCAACCUCCAAUGCAUCCCACCACAUGAUGAUGCCUGAAGAGCCUUGGUUUUUUG | -5.61
12 | GACCAAUCUGCCCUCAGAGCUCGAGAACAUCUUCGGAUGCAGAGGAGGCGGGCUUCGGUGGCGUGAUAGCGCCAACGUCCUCAACCUGCAAUGCAUCCCACCACAUGAUGAUGCCUGAAGAGCCUUGGUUUUUUG | -0.539
13 | GACCAAUCUGCCCUCAGAGCUCGAGAACAUCUUCGGAUGCAGAUGUGGCAGGCUUCGGUGGCGCGAUAGCUCCAACGUCCUCAACCUCCAAUGCAUCCCACCACAUGAUGAUGGCUGAAGAGCCUUGGUUUAUUG | -4.18
14 | GACCAAUCUGCCCUCAGAGCUCGAGAACAUCUUCGGAUGCAGAUGAGGCAGGCUUCGGUGGCGCGAUAGCGUCAAAGUCCUCAACCUUCAAUGCAUCCCACCACAUGAAGAUGCCUGAAGAGCCUUGGUUUUUUG | -5.19
15 | GACCAAUCUGCCCUCAGAGCUCGAGAACAUCUUCGGAUGCAGAGGUGGCAGGCUUCGGUGGCGCGAUAGCGCCAACGCCCUCAACCUCCAAUGCAUCCCACCACAUGAUGAUGCCUGAAGAGCAUUGGUUUUUUG | 0.325
16 | GACCAAUCUGCCCUCAGAGCUCGAGAACAUCUUCGGAUGCAGAGGAGGCAGGCUUCGGUGGCGCGAUAGCCCCAACGUCCUCAACCUCCAAUGCAUCCCAACACAUGAUGAUGCCUGAAGUGCCUGGGUUUUUUG | -0.863
17 | GACCAAUCUGCCCUCAGAGCUCGAGAACAUCUUCGGAUGCAGAGGAGGCAGGCUUCGGUGGCGCGAUAGCGCCAACGUCCUCAACCUCCAAUGCAACCCACCACAUGAUGAUGCCUGAAGAGCCUUGGUCUUUUG | -0.978
18 | GACCAAUCUGCCCUCAGAGCUCGAGAACAUCUUCGGAUGCAGAGGAGGCAGGCUUCGGUGGCGCGAUAGCGCCAACGUCCUCAACCUCCAAUGCAUCCCACCACAUGAUGAUGCGUGAAGAGCCUUGGUUUUGUG | -0.9
19 | GACCAAUCUGCCCUCAGAGCUCGAGAUCAUCUUCGGAUGCAGAGGAGGCAGGCUUCGGUGGCGCGAUAGCGCCAACGUCCUCAACCUCCAAUGCAUCCCACCACAUGAUGAUGCCUGAAGAGCAUUGGUUUUUUG | -0.764
20 | GACCAAUCUGCCCUCAGAGCACGAGAACAUCUUCGGAUGCAGAGGAGGCAGGCUUCGGUGCCGCGAUAGCGCCAACGUCCUCAACCUCCAAUGCAUCCCACCACAUGAUGAUGCCUGAAGAGCCUUGGUUUUUUG | -1.97
21 | GACCAAUCUGCCCUCAGAGCUCGAGAACAUCUUCGUAUGCAGAGGAGGCAGGCUUCGUAGGCGCGAUAGCGCCAACGUCCUCAACCUCCACUGCAUCCCACCACAUGAUGAAGCCUGAAGAGCCUUGGUUUUUUG | -2.22

Row | Variant | polymerase ribozyme fitness (log ratio)
22 | GACCAAUCUGCCCUCAGAGCUCGAGAACAUCUUCGGAUGCUGAGGAGGCAGGCUUCGGUGGCGCGAUAGCGCCAACGUCCUCUACCGCCAAAGCAUCCCACCACAUGAUGAUGCCUGAAGAGCCUUGGUUUUUUG | -0.357
23 | GACCAAUCUGCGCUCAGAGCUCGAGAACAUCUUCGGAUGCAGAGGAGGCAGGCUUCGGUGGCGCGAUAGCGCCAACGUCCUCAACCUCCAAUGCAUCCCACCACAUGAUGAUGCCUGAAGAGCCUUGAUUUUUUG | -1.65
24 | GACCUAUCUGCCCUCAGAGCUCGAGAACAUCUUCGGAUGCAGAGGAGGCAGGCUUCGGUGGCGUGAUAGCGCCAACGUCCUCAACCUCCAAUGCAUCCCACCACAUGAUGAUGCCUAAAGAGCCUUGGUUUUUUG | -2.55
25 | GACCAAUCGGCCCUCAGAGCUCGAGAACAUCUUCGGAUGCAGAGGAAGCAGGCUUCGGUGGCGCGAUAGCGCCAAAGUCCUGAACCUCCAAUGCAUCCCACCACAUGAUGAUGCCAGAAGAGCCUUGGUUUUUUG | -2.05
26 | GACCAAUCUGCCAUCAGUGCUCGAGAACAUCUUCGGAUGCAUAGGAGGCAGGCUUCGGUGGCGCGAUAGCGCCAACGUCCUCAACCUCCAAUGCAUCCCACCACAUGAUGAUGCCUGAAGAGGCUUGGUUUUUUG | -0.827
27 | GACCAAUCUGCCCUCAGCGCUCGAGAACAUCUUCGGAUGCAGAGGAGGCAGGCUUCGGUGGCGCGAUAGCGCCAACGUCCUCAACCUCCAAUGCAUCCCACCACAUGAUGAUGCCUGAAGAGCGUUGUUUUUUUG | -3.83
28 | GACCAAUCUGCCCUCAGAGCUCGAGAACAUCUUCGGAUGCAGAGGAGGCAGGCUUUGGUAGCGCGAUAGCGCCAACGUCCUCAACCUCCAAUGCAUCCCAUCACAUGAUGAUGCCUGAAGAGCCUUGGUUUUUUG | -5.48
29 | GACCAAUCAGCUCUCAGAGCUCGAGAACAUCUUCGGAUGCAGAGGAGGCAGGCUUCGGUGGCGCGAUAGCGCCAACGUCCUCAACCUCCAAUGCAUCCCACCACAUGAUGAUGCCUGAAUAGCCUUGCUUUUUUG | 0.498
30 | GACCAAGCUGCCCUUAGAGCUCGAGAAGAUCAUCGGAUGCUGAGGAGGCAGGCUUCGGUGGCUCGAUAGCGCCAACGUCCUCAACCUCAAAUGCAUCCCACCACAUGAUGAUGCCCGAAGAGCCUUGGUUUUUUG | -4.52
31 | GACCAAUCUGCCGUCAGAGCUCGAGAACAUCUUCGGAUGCAGAGGAGGCAGGCUUCGGUGGGGCGAUAGCGCCAACGUCCUCAACCCCCAAUGCAUCCCACCACAUGAUGAUGCCUGAAGCGCCUUGGUUUUUUG | -3.3
32 | GACCAAUCUGCCCUCAGAGCUCGAGAACAUCUUCGGAUGCAGAGGAGGCAGGCUUCUGUUGCGCGAUAGCGCCAACGUCCUCAACCUCCAAUGCAUCCCACCACAUGAUGAUGCCUGAAGAGUCUUGGUUUUUUG | 0.317
33 | GACCAAUCUGCCCUCAGAGCUCGAGAACAUCUUCGGCUGCAGAGGAGGCAGGCUUCGGUGGCGCGAUAGCGCCAACGUCCUCAACCUCCAAUGCAUCCCACCACAUGAUGAUGCCUGAAUAGCCUUGGUUUUUUG | 0.436
34 | GACCGAUCUGCCCUCAGAGCUCGAGAACAUCUUCGGAUGCAGAGGAGGCAGGCUUCGGUGGCGCGAUAGCGCCAACGUCCUCAACCUCCAAUGCAUCCCACCACAUGAUGAUGCCUGAAGAGCCUUGGUUUUUUG | -0.0211
35 | GACCAAUCUGCCCUCAGAGCUCGAGAACAUCUUCGAUUGCAGAGGAGGCAGGCUUCGGUGGCGCGAUAGCGCCAACGUCCUCAACUUCCAAUGCAUCCCACCACAUGAUGAAGCCUGAAUAGCCUUGGUUUUUUG | -5.12
36 | GACCAAUCUGCCCUCAGAACUCGAGAACAUCUUCGGAUGCAGAGGAGGCAGGCUUCGGUGGCGCGAUAGCGCCAACGUCCUCAACCUCCAAUGCAUCCCACCACAUGAUUAUGCCUGAAGAGCCUUGGUUUUUUG | -3.66
37 | GACCAAUGUGCCCUCAGAGCUCGAGAACAUCUUCGGAUGCAGAGGAGGCAGGCUUCGGUGUCGCGAUAGCGCCAACGUCCUCAACCUCCAAUGCAUCCCACCACAUGAUGAUGCCUGAAGAGCCUUGGUUUUUUG | 0.967
38 | GACCAAUCUGCCCUCAGAGCUCGAGAACAUCUUCGGAUGCAGAGGAGGCAGGCUUGGGUGGCGCGAUAGCGCCAACGGCCUCAACCUCCAAUGCAUCCCACCACAUGAUGAUGCCUGAAGCGCCUUGGUUUUUUG | 1.64
39 | GUCCAAUCUUCCCUCAGAGCUCGAGAACAUCUUCGGAUGCAGAGAAGACAGGCUUCGGUGGCGCGAUAGCGCCAACGUCCUCAACCUCCAAUGCAUCCCACUACAUGAUGAUGUCUGAACAGUCUUGGUUUUUUG | -4.53
40 | GACCAAUCUGCCCUUAGAGCUCGAGAACAUCUUCGGAUGCAGAGGAGGCAGGCUUCGGUGGCGCGAUAGCGUCAACGUCCUCAACCUCCAAUGCAUCCCACCACAUGAUCAUGCCUGAAGAGCCUUGGUUUUUUG | -5.35
41 | GACCAAUCUGCCCUCAGAGCUCGAGAACAUCUUCGGAUGCAGAGGAGGCAGGCUUCGGUGGCGCGAUAGCGCCAACGUCCUCAACCCCCAAUGCAUCCCACCACAUGAUGAUACCUGAAGAGCCUUGGUUUUAUG | -0.981
42 | GACCAAUCUGCCCUCAGGGCUCGAGAACAUCUUCGGAUGCAGAGGAGGCAGGCUUCGGUGGCGCGAUAGCGCCAACGUCCUCAACCUCCAAUGCAUCCCACCACAUGAUGAUUCCUGAAGAGCCUUGGUUUUUUG | -4.5
